The supplement of paper PMC10201428
± gives the standard deviation of the averaged measurements.

Legend:
[1] = system: VchCAST RNA-guided transposition machinery (E. coli BL21(DE3) host, lacZ target); assay: relative integration efficiency (T-RL orientation) vs wild-type transposon end (log2 (normalized fold change)); transposon end mutated: right end (5 bp flank + 75 bp right end); higher = more efficient transposition
Procedure, shortened: (§1)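 In E. coli BL21(DE3), a T7-driven effector plasmid was paired with a pUC57 mini-transposon donor containing 1549 left-end or 1849 right-end barcoded transposon variants. Cells grew on plates with 0.1 mM IPTG at 37°C for 18 h. Relative integration efficiency was derived from Illumina reads of genomic integration junctions against input plasmids, as a log-transformed output/input barcode fold change normalised to reference barcodes.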

[2] = system: VchCAST RNA-guided transposition machinery (E. coli BL21(DE3) host, lacZ target); assay: relative integration efficiency (T-LR orientation) vs wild-type transposon end (log2 (normalized fold change)); transposon end mutated: right end (5 bp flank + 75 bp right end); higher = more efficient transposition
Procedure, shortened: as §1

Sequence | relative integration efficiency (log2) [1] | relative integration efficiency (log2) [2]
ACATTTGTTGATACAACCATAAAATGATAATTAATAATTATTTATAATCAGCAACTTAACCACCACCCATAAATTGATAATTATCAACAAACGCCCGGTCGCGGTACTCTGATCATAGTCAGACCAA | -3.21 ± 0.38 | 0.423 ± 1.1
ACATTTGTTGATACAACCATAAAAGGATAATTCACCCCTAAATTGATAATTATCACACCCACATTTAACTATAACGCTCTGATCATAGTCAGACCAACATTGCTACGACCCGTATTCGCACCGACAC | -4.49 ± 0.25 | -0.705 ± 0.48
ACATTTGTTGATACAACCATAAAAGGATCATTACCCCCATCAATTGATAATTATCCCACCCCATTTAACTATAACGCTCTGATCATAGTCAGACCAACATTGCTACGACCCGTATTCGCACCGACAC | -4.43 ± 0.28 | -1.31 ± 0.15
ACATTTGTCGATACAACCCTAAAATGATAATTACACCCATAAATGGATCATTATCACACCCAATTTAACTATAACGCTCTGATCATAGTCAGACCAACATTGCTACGACCCGTATTCGCACCGACAC | -4.03 ± 0.13 | -1.24 ± 0.25
ACATTGTTTGATACAACCATAAAATGATAATTACACCCATAAATTGATAATTATCACACCCATAAATTGATATTGCCTCTGATCATAGTCAGACCAACATTGCTACGACCCGTATTCGCACCGACAC | -6.33 ± 0.24 | -4.94 ± 0.3
ACATTTGTTGATACAACCATAAAATGATAATTACACCCATAAATTGATAATTATCACACCCATAAATTGAGCGGTAAGAGGATCATAGTCAGACCAACATTGCTACGACCCGTATTCGCACCGACAC | -0.428 ± 0.035 | 1.6 ± 0.023
ACATTTGTTGATACAACCATAAAGTGATATTTACAACCATATATTGATATCTCTCACACCCATAAATTGATATTGCCTCTGATCATAGTCAGACCAACATTGCTACGACCCGTATTCGCACCGACAC | -0.378 ± 0.18 | 0.352 ± 0.16
ACATTTGTTGATACAACCATAAAATGATAATTACACCCATAAATTGATAATTATCACACCCATAAATTGATATTGCCTCTGATCATAGTCGAACTAGTTAACTAGTACGCTCAGACCGCACCGACAC | -0.00349 ± 0.18 | 0.192 ± 0.2
ACATTTGTTCATACAACCATAAAATGATAATTACACCCATAAATTGATAATTATCACCCCCAATTTAACTATAACGCTCTGATCATAGTCAGACCAACATTGCTACGACCCGTATTCGCACCGACAC | -0.912 ± 0.46 | 0.97 ± 0.12
ACATTTGTTGATACAACACGCAAATGATAATTACACCCATAAATTGATAATTATCACACCCATAAATTGATATTGCCTCTGATCATAGTCAGACCAACATTGCTACGACCCGTATTCGCACCGACAC | -4.368 ± 0.0069 | -4.89 ± 2.5
ACATTTGTTGATACAACCATAAAATCATAATTACACCCATCAATTGATAATTATCACACCCAATTTAACTATAACGCTCTGATCATAGTCAGACCAACATTGCTACGACCCGTATTCGCACCGACAC | -4.01 ± 0.22 | -0.27 ± 0.36
ACATTTGTTGATACACCCATAAATTGATAATTACAACCATAAAGTGATATTTATCACACCCATAAATTGATAATTACTCTGATCATAGTCAGACCAACATTGCTACGACCCGTATTCGCACCGACAC | -0.494 ± 0.16 | -0.96 ± 0.16
ACATTTGTTGATACAACCATAAAATGATAATTACACCCATAAATTGATATAATTCACACCCATAAATTGATATTGCCTCTGATCATAGTCAGACCAACATTGCTACGACCCGTATTCGCACCGACAC | -0.233 ± 0.14 | 0.18 ± 0.19
ACATTTGTTGATACAACCATAAAAGGATAATTACCCCCATCAATTGATAATTATCCCACCCAATTTAACTATAACGCTCTGATCATAGTCAGACCAACATTGCTACGACCCGTATTCGCACCGACAC | -0.787 ± 0.53 | 1.91 ± 0.034
CAAAATGTTGATACAACCATAAAATGATAATTACACCCATAAATTGATAATTATCACACCCATAAATTGATATTGCCTCTGATCATAGTCAGACCAACATTGCTACGACCCGTATTCGCACCGACAC | -0.331 ± 0.081 | -0.0192 ± 0.23
ACATTTGTTGATACAACCATAAAATGATAAATACACCCATAAATTGATAATGATGACACCGAATTTAACTATAACGCTCTGATCATAGTCAGACCAACATTGCTACGACCCGTATTCGCACCGACAC | -0.862 ± 0.42 | 2.71 ± 0.18
ACATTTGTTGATACAACCATAAAAAGATAATTACACCCATAAATTGATAATGATGACACCGAATTTAACTATAACGCTCTGATCATAGTCAGACCAACATTGCTACGACCCGTATTCGCACCGACAC | -1.33 ± 0.2 | 2.23 ± 0.057
ACATTTGTTGATACAACCATAAATAGATAATTACACCCATAAATTGATAATTATCACACCCATAAATTGATATTGCCTCTGATCATAGTCAGACCAACATTGCTACGACCCGTATTCGCACCGACAC | -0.642 ± 0.046 | -0.506 ± 0.44

Sequence | relative integration efficiency (log2) [1] | relative integration efficiency (log2) [2]
ACATTTGTTGATACAACCATAAAATGATAATTAATAATTATTTATAATCAGCAACTTAACCACAAACACCCATAAATTGATAATTATCACACCCATAAATTGATATTGCCTCTGATCATAGTCAGAC | -5.71 ± 1.2 | -4.03 ± 0.67
ACATTTGTTGATACACCCATAAATTGATAATTACACCCATAAATTGATATTGCTCACAACCATAAAGTGATATTTACTCTGATCATAGTCAGACCAACATTGCTACGACCCGTATTCGCACCGACAC | -0.813 ± 0.18 | -0.114 ± 0.24
ACATTTGTTGAGCCAACCATAAAATGATAATTACACCCATAAATTGATAATTATCACACCCATAAATTGATATTGCCTCTGATCATAGTCAGACCAACATTGCTACGACCCGTATTCGCACCGACAC | -0.297 ± 0.0032 | -0.934 ± 0.11
ACATTTGTTGATACAACCATAAAAGGATAATTACACCCATCAATTGATAATTATCCCACCCCATTTAACTATAACGCTCTGATCATAGTCAGACCAACATTGCTACGACCCGTATTCGCACCGACAC | -1.79 ± 0.17 | 0.942 ± 0.22
ACATTTGTTGATACAACCATAAAATGATAATTAATAATTATTTACACCCATAAATTGATAATTATCAACAAACGCCCGGTCGCGGTACTCTGATCATAGTCAGACCAACATTGCTACGACCCGTATT | -2.54 ± 0.21 | 0.163 ± 0.01
ACATTTGTTGATACAACCATAAAATGATAATTAATAATTATTTATAATCAGCAACTCACCCATAAATTGATAATTATCACACCCATAAATTGATATTGCCTCTGATCATAGTCAGACCAACATTGCT | -3.48 ± 0.49 | -2.22 ± 1.2
ACATTTGTTGATACAACCATAAAATCATCATTACACCCATAAATTGATAATTATCACACCCCATTTAACTATAACGCTCTGATCATAGTCAGACCAACATTGCTACGACCCGTATTCGCACCGACAC | -3.39 ± 0.35 | 0.57 ± 0.096
ACATTTGTTGATACAACCATAAGTTGATATTTTCAACCATAAGTTGATATTTTTCACAACCATAAGTTGATATTTTCTCTGATCATAGTCAGACCAACATTGCTACGACCCGTATTCGCACCGACAC | 0.214 ± 0.079 | -0.207 ± 0.25
ACATTTGTTGATACAACCATATATTGATATCTCCAACCATAAGTTGATATTTTTCAGTGGGTATTTAACTATAACGCTCTGATCATAGTCAGACCAACATTGCTACGACCCGTATTCGCACCGACAC | -0.859 ± 0.26 | 2.468 ± 0.015
ACATTTGTTGATACAACCATATATTGATATCTCCACCCATAAATTGATATTGCTCACAACCATATATTGATATCTCCTCTGATCATAGTCAGACCAACATTGCTACGACCCGTATTCGCACCGACAC | -0.713 ± 0.056 | 0.439 ± 0.28
ACATTTGTTGATACAACCATTAAATGATAATTCCACCCCTAAATTGATAATTATCACACCCAATTTAACTATAACGCTCTGATCATAGTCAGACCAACATTGCTACGACCCGTATTCGCACCGACAC | -2.75 ± 0.27 | 0.256 ± 0.39
ACATTTGTTGATAACCACATAAAATGATAATTACACCCATAAATTGATAATTATCACACCCATAAATTGATATTGCCTCTGATCATAGTCAGACCAACATTGCTACGACCCGTATTCGCACCGACAC | -0.808 ± 0.095 | -1.28 ± 0.093
ACATTTGTTGATACAACCATAAAATGATAATTAATAATTATTTATAATCACCCATAAATTGATAATTATCAACAAACGCCCGGTCGCGGTACTCTGATCATAGTCAGACCAACATTGCTACGACCCG | -3.08 ± 0.15 | 1.05 ± 0.26
ACATTTGTTGATACACCCATAAATTGATATTGCCACCCATAAATTGATAATTATCACAACCATAAGTTGATATTTTCTCTGATCATAGTCAGACCAACATTGCTACGACCCGTATTCGCACCGACAC | -0.676 ± 0.16 | -0.238 ± 0.32
ACATTTGTTGATACAACCATAAAGTGATATTTACAACCATATATTGATATCTCTCACAACCATAAAGTGATATTTACTCTGATCATAGTCAGACCAACATTGCTACGACCCGTATTCGCACCGACAC | -0.357 ± 0.21 | -0.115 ± 0.5
ACATTTGTTGATCCAACCATAAAATGATAATTACACCCATAAATTGATCATTATCACACCCAATTTAACTATAACGCTCTGATCATAGTCAGACCAACATTGCTACGACCCGTATTCGCACCGACAC | -1.7 ± 0.3 | 1.98 ± 0.02
ACATTTGTTGATACAACCATAAAAGGATCATTACACCCATCAATTGATAATTATCACACCCAATTTAACTATAACGCTCTGATCATAGTCAGACCAACATTGCTACGACCCGTATTCGCACCGACAC | -3.44 ± 0.37 | -0.241 ± 0.022
